In the supplement of paper PMC10567573 one finds protein stability index data, which are given here for three variants.

The chains are these.
B1: PPP2R2C (parent)
chain: YSSSKGSLRLCDMRAAALCDKHSK
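Further: lentivirally expressed fusions sorted by FACS into six bins by GFP to DsRed ratio, PSI derived from sequencing read proportions per bin multiplied by bin number.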

This data set covers variants of B1. Kind of data set: protein stability index of a GFP-peptide fusion (GPS, HEK-293T) (PSI 1-6); higher = more stable. Conditions: c terminus: a fixed tail appended.
K24V: the protein stability index amounted to 1.74. As for K24W, the protein stability index amounted to 2.51.

For K24Y, the protein stability index worked out at 1.52.
